Test results reported in the DeepSol protein solubility set.

Assay: soluble on expression in E. coli; label from the status in PepcDB or PDB records

**Q.** With “MAHHHHHHMSHTFTDPLVDLASVSFQYPHGGGGSAGGIRDVSVRVNGGDRVLVVGHNGSGKSTLLSVIAGRRKASSGRATVLGSDAFDDTRLQQHVTLIGRPWPTEAFFATTVDQVTSQAPLPERKRSVADALHLDLGRAVSNMSSGERRRVQILHGLLQKSFVYLLDECSTDIDIAERMTVLDLVRSECVVGDSCCLYATHIFDGVSDWATHLLLMQGGMVVDFKRVSDLNAPLEVFVCHFLTRRHRGLFDHTSKRTPVKDAYNDDWKGGGTVTALPLEKEAVIVCDRLQYRNIFRNLSFTVYRGDRVLLCGCNGAGKSTLLKMMGGKQFFNNCNGSLRILGKSCYDDMTLNGLVAFGGEWWDTAPPGEMHVHEMLQLQTPRAEWLCKVLGVDLSWDVRHISTGEQKHVQLLLHLLEDKPVILLDEATSDLDLDQRQELLSFLYSESVNRGVTVVYATHIFGGLENWPTAVMMLDRTTQGLHAMWCGSDVKWAEVTRELIALK” as the sequence, how does the “soluble on expression in E. coli” value read?
**A.** not soluble

**Q.** With “MAHHHHHHMSNELLQGAALYKELLCVYHNLAESELGLSGGDVGALFQIKENLSQPISCDIQKCKEILTKLKLVLIHLPSVDPLVPIGKKNINELLLARHILEKGVIISILDRDIKAFSIYMAQLLLYYFDYCNFLPKSGNQNGIIGMYLLYLLSSNLIGDFHMTLEVISIEDQSDEYIKYALELEQHIMDGYFHHVLTKKENIPLYLYSLFIERLYNTIRHKLADCLFASSNCISSEYACELLKLGSEQELCQFIGEYNEAKTSQGECNLLWEVRNKKIYFNNQTVHVQDLPALEVLNNTIGYATELERIV” as the sequence, how does the “soluble on expression in E. coli” value read?
**A.** not soluble

**Q.** Which “soluble on expression in E. coli” value does the source give for “MAHHHHHHMSNPWNAKLVEELLFRQYEKGEDVSMLLPPPPALSVDQYLKEYEQSTKVLFAYVRNGPANALTPQNINNPRMYGGTPTKGSSSMQRTGNQGGATCATTSSSSACGVDSKAQMQRHPRGLDGSQSAAPSLPLTAGDAAAGQGSMAPPEHIRKRIEWPATVPTNSALKSNSRSRVANLTTKRVAAQERVDPDLIFMQNPEELPLHTIFAKYPKAVESIAALRGGSGDWREDTFTEEEEILYKRELRYSHMGPSQCGFFRSNLIQR” here?
**A.** not soluble

**Q.** With “MAHHHHHHMSRCGRKLDMSSGYWLPRRLLLVRHGESEANVDRALYSKVPDWKIPLTARGREQAFECGRRLRKIIKNEKLYVYYSPYTRTRQTLTEVRKSLLPSQVQGEREDERLREQEIGNFQPLDKMDEMWAERSEFGRSYYRFPDGESSVDVGDRVSKFFDSLFRERVELNYLSARKQMITGSSNDVGPASFTVPDDDDHNVVIISHGLLIRLFVGRWYSAPMEVFETMKNPPNCGIVVLERREAGRLVMTDTSKKLFGSDPLLEMMKFDGKDNVQLFRHLFAEGGYSFSAGEGTDR” as the sequence, how does the “soluble on expression in E. coli” value read?
**A.** soluble

**Q.** With “MAHHHHHHMSTIYNAVDASTLNDRCRTDLLDTVAQLGRHCETLPKKAVTTADAPLPSCTFNTTVSRSQKEINCSNEAALDKYIEEKGATRWRTTQALASTYFKDHKPKFHGALRTQDCFRDTRDITQLSSKEKDFVHRYAEAKMKKSIPREESDDVAKKVATEAYTEAFRKFKGRDPTEKELLEVERLYFAYADDGAVGVVQKPHFHGPHMHVSICNRKYVTCPNQVYRASLPAVRNARSRFPGPIPVWTSTKNLHAVVSNDTYRPGVHNVSKFGETSSK” as the sequence, how does the “soluble on expression in E. coli” value read?
**A.** not soluble

**Q.** Which “soluble on expression in E. coli” value does the source give for “MAHHHHHHMSWAALVKSIKPEEATNFTAKPRVTVFAVDPSQNDAERQLQNPQHETAEVKLPSFSKGLLILDANAIIKGMDNFVSTADALVTTPQVIAEIKDRASRELMERLPHKVTVLDPTPEAVAAVVACAERTGDFGAMSRTDIRLCALALECCKVGGFLGEPIEPRPPQVNPRNDDKVQVMTEEMGEDGSNDERAKSETAHAQGASSSAMPGWGDWSDEAKETDGEGGAGAAEEDDGEGEWITPENIQDVQSGTRGAGRAFEAGMACVTSDYAMQNTLMHLGVPIVGTNGIHIRELRLWMMRCTACFTLVVDTTRQFCPECGSGDTLRRVNYVVNDQGEKKLYINFRKRISTRGTIYNLPRPRGGTHGTNRNLVLREDQLAHVIRGTTSSKVKAHQVMQNDDGALATFGEAPKLKKKNLADPRAYSSYHRYNVNEKKKVRAAHRK” here?
**A.** soluble

**Q.** For “MAHHHHHHMTAKSPCLDILPFIFREEQISNRIQTFPTETMKKAYLELKGYFEQYKIYAEKLINFSGSMNDENQRKEKLIIKLRCEYYAVIFSQASKLLHEYINFRNRLILELAINVNGLINSIHPNIIQRLNEDEQKELQKYCENIRSERTRSKLQNKFTVCFLNDLIIEDLNYEGVQKDMKGRNVFYSAGLKVSVFEDKALDLQKCEWAKILRD”, which “soluble on expression in E. coli” value is on record?
**A.** not soluble

**Q.** Which “soluble on expression in E. coli” value does the source give for “MAHHHHHHMTFPSVQSSVHLYSNVVELAIRYTDLCAFCGRKAHEGENGSTKGDRAETSGSWHFHLARSKEPIAVSCLHAIMQRTNILGGRVNLFFTFERVPPFGGHKSRAVIQLASFHYSKNMRLCLNVAYLPQEEVRLKTVRAHVDSDCNVLEVACWRVFVFLGRST” here?
**A.** not soluble

**Q.** For “MAHHHHHHMTSQPHVTMSKNTGSVTEQHKRMSHTTGDNNEEEKHILAGRYKTKLCKNYVARGECPYDVRCMFAHGEDELRTSDDNIRDGLVTEEAIKDFQRQQNQAKRRAAFAAAREHNNHDHSHSHNHSHSHNHTVRPVPHGNVYEMEENVESNEVYRNRNRHHNLRLHPPQEPVSIPQPQQQQQQEQQFQLQSVVAQYYTHNPYVFDLIPAAARLFPVYQEVVEEGCWYEEEPVPAQEDYYFPSSDMMMPLVPSLVTQQYLPYPHQQCSKQLETVASASTYSCEEAMYGHSESSASSAYRSVARCTAAELPSNSDIPAMVMEP”, which “soluble on expression in E. coli” value is on record?
**A.** not soluble

**Q.** For “MAHHHHHHMVFYSFVLVMKPRQRRFTSQALREIGVAVYSNGGLIRSITNEGIMRPYSRFRDADNTPLTYARYIILQLDMGEEEMGKVDKIIREHQDVLMALKLNNLERPVGIRSGNKELQAAYFPLDTFTRLEEEINWSPQTSADIYTQLEMNWKEFSRTRWSSFLRN”, which “soluble on expression in E. coli” value is on record?
**A.** not soluble

**Q.** For “MAHHHHHHMVGLRTRNVIDPIHGGVGRVIGGKGVSIDRNDGSIISDNEGENDRNGGDIPKAEGEEGRDAQDKGNAKVVMPIDEANQSNIANICSCDFTERLNFIPQEKTKVVCNLNPHHGEEVKIWVNKEYEVKCFQNSRVYCPSKDNIVNNTDITTYSPKLKYNISDVVHRDREVKEYHLQIDKDASDILLFCSIKPKQVSELLEGEVKINLKREISEEYSIPDEHGIHACNFSKGNLDISPSAGFYYKNDRSVSCIYLVIPNKLFLIKLPKLDIVTNQLLPSLVNCLSEHSFINFNLKHVEEGDESISLHLSFGDFKRTFNLSCAFDLSEYVIEPCLLGKKGIVTFYFNA”, which “soluble on expression in E. coli” value is on record?
**A.** not soluble

**Q.** For “MAHHHHHHMVTFRCDCLHNEAEGALCRWKGKWHPANCTNTPVLLIGKGQPQGYFKLKLKVYAIFHGNGHRLHTLNCTDEDSSEDSLNATTCSDSDWRSITQQVPTEETVEQSAASEQGPSDTTKGSGSDDEETASSAPKSEGEEQEASGEGEETPKEDQQSPGEKRGTAGEKRGASGKKDGAGGEGLTRKEPEKGGATQGGKHTHPRGESSPEKGTVNDHQRDAAEDGTTTNGKQDADPGREEPVRGRDDTVAAGAGIVSNTGRIDRKPENKKGNNVRYGAIQNLLVAIVCFITG”, which “soluble on expression in E. coli” value is on record?
**A.** not soluble

**Q.** Which “soluble on expression in E. coli” value does the source give for “MAHHHHHHMWWTAARRRLYYPNQIFLSKDNRRINNSWLPRRLLLVRHGESEANVNREVYSNTPDWKIPLTALGREQAYDCGKRLRNIIQGEKLYIYYSPYARTRQTVSEIRRSFDESQIQGEREDERLREQEMGNYQPLQDMDATWAARNAFGRLYYRFPFGESGADVGDRVSGFFDSLLRESIGLTVPNMNECVVQGAREGLGALDLGPWSTGVDNVPGSSCACSVSTSQGGPVASSTGSESAPPSWTPSFHQATTSSAGLRRTIRRTSPHRPLPLSDFGEAETRGVPPLNDHCASAGEEQNVLIIAHGLLIRLFIGRWFRVPMEVFETMCNPPNCAIIVLERDDRLGRLVMTDMSKSLFGSDPLLQMMRFDGREDTHWYREKFLGIVDPTKAAEEAVVEDDDENHYSMSNAHNSGVGAPAPPPRQRKPSTSTATRASPSTSASASGTSASSAESADVSASTAEHAALAARDRATQPKCPPPCMDCTPNRDYMTFSRRR” here?
**A.** not soluble

**Q.** Which “soluble on expression in E. coli” value does the source give for “MAHHHHHHSLCPCPHSQAQGETDGEAEWHNAALDFTHAMSYGDYLKLDKVLDAQFPLSPDHNEMLFIIQHQTSELWMKLMLHELRAAREHVKSGKLGPALKMLARVSRIFDQLVHAWAVLATMTPTEYNTIRPYLGQSSGFQSYQYREIEFILGNKNATLLKPHAHRAELLAALEQALHTPSLYDEAIRLMAAQGLPVSQERLARDAAAGTCYEASVEAAWRQVYQAPERYWDLYQLAEKLIDLEDSFRQWRFRHVTTVERIIGFKPGTGGTEGVGYLRSMLDTILFPELWRLRSNEG” here?
**A.** soluble
